The text below walks through data of patent US20160311923A1 (SORRENTO THERAPEUTICS, published 2016).

First the molecules themselves.
B1: A04 (antibody, V domains shown)
VH: QVQLQQSGPGLVQPSQTLSLTCDISGDSVSSTGAAWNWIRQSPSRGLEWLGRTYYRSKWYNDYALSVRSRITITPDTSKNQFSLQLNSVTPEDTAVYYCVRDGDVGLDAFDIWGQGTMVTVSS
VL: QTVVTQAPSVSVAPGQTARITCGGNNIGSKSVHWYQQKPGQAPVLVVYDDSDRPSGIPERFSGSNSGNTATLTISRVEAGDEADYYCQVWDSTSDHVVFGGGTKVTVL
notes: also called ErbB3-A04; anti-ErbB3 A04
B2: A02 (antibody, V domains shown)
VH: EVQLVQSGAEVKKPGASVTVSCKPSGYAFTDYYIHWVRQAAGQGLEWMGWVDPRSGATVYAQNFQGRVTMTRDRSSSTVYMDLSRVTSDDTALYFCGRDNYGIFDYWGQGTLVTVSS
VL: QPVLTQPPSVSAAPGQRVTISCSGSSSNIGNNYLSWYQQLPGTAPKLLIYDDTKRPSGIPDRFSGSKSGTSATLGITGLQTGDEADYYCGTWDGSLDAEVFGTGTKLTVL
notes: also called ErbB3-A02; anti-ErbB3 A02
B3: A08 (antibody, V domains shown)
VH: QMQLVQSGADVKKPGASVRVSCKTSGYTFTSYDINWVRQAPGQGLEWMGWMNPDTGNTAYVQKFQGRVTVTRDTSINTVYMELSGLRSEDTAVYYCAKSGGSSSYDAFDIWGQGTMVTVSS
VL: QSVLTQPPSVSVAPGNTATITCGGDNIGEKTVHWYQQRPGQAPALVIYYDSDRPSGIPERFSGSNSGNTATLTISRVEAGDEADYYCQVWDSSSDHVVFGGGTKLTVL
notes: also called ErbB3-A08
B4: A01 (antibody, V domains shown)
VH: QVQLVQSGAEVKQPGASVKVSCKASGGTFSSYAISWVRQAPGQGLEWMGGIIPIFGTANYAQKFQGRVTITADESTSTAYMELSSLRSEDTAVYYCATTTMVRGVIMYYFDYWGQGTLVTVSS
VL: QSALTQPPSASGSPGQSVTISCTGTSSDVGAYNDVSWYQHHPGKAPKLIIYEVNHRPSGVPDRFSGSKSDNTASLTISGLQAEDEADYYCSSYTPSNTPLVFGSGTKVTVL
notes: fully human antibody of an IgG class, detected with anti-human IgG (gamma-chain specific); also called ErbB3-A01; anti-ErbB3 A01
B5: A11 (antibody, V domains shown)
VH: QVQLVQSGRGLVQPGRSLRLSCAASGFTFDEYAMHWVRHAPGKGLEWVAGMSWNGGGIGYADSVKGRFTISRDNSKNTLYLQMNSLRAEDTAVYYCAREGAGGSYPTDAFDIWGQGTTVTVSS
VL: IVLTQSPSSLSASVGDRVTITCQASHDISNYLTWYQHRPGRAPKLLIFDASRLETGVPSRFSGYGSGKDFTFTISGLQPEDFATYYCQHYADLPSFGQGTKLEIK
notes: also called ErbB3-A11
B6: B11 (antibody, V domains shown)
VH: B5 VH
VL: EIVLTQSPSSLSASVGDRVTITCQASHDISNYLTWYQHRPGRAPKLLIFDASRLETGVPSRFSGYGSGKDFTFTISGLQPEDFATYYCQHYADLPSFGQGTKVDIK
B7: D10 (antibody, V domains shown)
VH: QVQLVESGGGLVQPGGSLRLACAASGFTFSNYEMNWVRQAPGKGLEWVATISDDSVYKYYADSVKGRFTISRDNSKALFYLQMDSLTFEDTAIYYCARDPGGDSLGYFQHWGQGTLVTVSS
VL: QAGLTQPPSASASPGDSVTLTCTLSSDHSDYKVDWYQQRPGKGPRFVMRVGTGGIVGVKGDGIPDRFSVWGSGPNRYLTIKNIQEEDESDYHCGSDHGSGNNYVYVFGGGTKLTVL
B8: B01 (antibody, V domains shown)
VH: B7 VH
VL: QAGLTQPPSASASPGDSVTLTCTLSSDHSDYKVDWYQQRPGKGPRFVMRVGTGGIVGVKVSNRFSGSKSGNTASLTISGLQAEDEADYYCSSYTDSSTLDVVFGGGTKLTVL
B9: D04 (antibody, V domains shown)
VH: EVQLLESGGGLVKPGGSLRLSCAASGFTFSSYSMNWVRQAPGKGLEWVSSISSSSSYIYYADSVKGRFTISRDNAKNSLYLQMNSLRAEDTAVYYCARGFGEDLFDYWGQGTLVTVSS
VL: QSVLTQPPSVSVAPGKTARITCGGNNIGSKSVHWYQQKPGQAPLLVIYYDTDRPSGIPERFSGSNSENTATLTISGVEAGDEADYYCQVWDIGSDQVVFGTGTKVTVL
B10: D08 (antibody, V domains shown)
VH: QVQLVESGGGLVKPGGSLRLSCAASGFTSSSYVLNWVRQAPGKGLEWVSSISSRGSYIYYADSVKGRFTISRDNAKNSLYLQMNSLRAEDTAVYYCARERAGFSPVNAFDIWGQGTMVTVSS
VL: QSVLTQPASVSGSPGQSITISCTGSSSDVGSYNLVSWYQQHPGKAPKLMIYDDNRRPSGISTRFSGSKSGNTASLTVSGLQAEDEAYYYCSSYAGRNNDVIFGGGTQLTVL
B11: D03 (antibody, V domains shown)
VH: QVQLVESGGGLVKPGGSLRLSCAASGFTFSSYSMNWVRQAPGKGLEWVSSISSSSSYIYYADSVKGRFTISRDNSKNTLYLQMNSLRDEDTAVYYCAREILTGYYPDAFDMWGQGTMVTVSS
VL: SYELMQPPSVSVAPGKTARITCGGNNIGSKSVHWYQQKPGQAPVVVIYYDSDRPSGIPERFSGSNSGNTATLTISRVEAGDEADYYCQVWDSSSDHYVFGTGTKLTVL
B12: C03 (antibody, V domains shown)
VH: QVQLVQSGAEVKKPGASVKVSCKASGYTFTSYGISWVRQAPGQGLEWMGWISAYNGNTNYAQKLQGRVTMTTDTSTSTAYMELRSLRSDDTAVYYCAREAYAWGAFDIWGQGTMVTVSS
VL: B11 VL with V45L, S94R, Y97A, T101G
B13: B08 (antibody, V domains shown)
VH: QVQLVQSGAEVKKPGASVKVSCKASGYTFTSHYGISWVRQAPGQGLEWMGSITPHNGKTNYVQMFQGRVTMTTDTSTRTVYMELRNLRSDDTAVYYCARDWNFADFDYWGQGTLVTVSS
VL: QSVLTQPPSASGSPGQSVTISCTGTSSDVGGYNFVSWYQQHPGKAPKLMIYDVTNRPSGVSNRFSGSKSGNTASLTISGLQAEDEADYYCSSYTSSSTPYVFGTGTKLTVL
B14: D01 (antibody, V domains shown)
VH: EVQLVQSGAEVRKPGASVKVSCKASQYTFTNYHIHWVRQVPGQGLEWMAMINPSNGNTNYGQRFQDRVTLTRDTSTSTAYMELSSLRSEDTAVYLCARDGLTFGDLLAYWGQGTLVTVSS
VL: QSVLTQPPSASGTPGQSVTISCSGSSSNIGGNTVNWYQQFPGTAPKLLMYINNLRPAGVPDRFSGSKSGTSASLVISGLQSEDEADYYCASWDDSLSGLVFGGGTKLTVL
B15: D07 (antibody, V domains shown)
VH: QVQLVESGGGLVQPGGSLRLSCVASGFTFSSYWMSWVRQAPGKGLEWVAYINLDGSEKDYVDSVKGRFTISRDNAKNSLYLQMNSLRAEDTALYYCAKAYSSSWLLSGGMDVWGQGTTVTVSS
VL: SYELTQPASVSGSPGQSITISCTGTSSDVGNYNSVSWYQQHPGKAPELMIYDVNNRPSGVSNRFSGSKSGNTASLTISGLQAEDEADYYCSSYTSSSTLVFGGGTQLTVLG
B16: E08 (antibody, V domains shown)
VH: EVQLVESGGGLIQPGGSLRLSCAASGFTVSSNYMSWVRQAPGKGLEWVSVIYSGGSTYYADSVKGRFTISRDNSKNTLYLQMNSLRAEDTAVYYCARDFGVGAVDYWGQGTLVTVSS
VL: QSVLTQPASVSGSPGQSITISCTGTSSDVGGYNFVSWYQQHPGKAPKLMIYDVTNRPSGVSNRFSGSKSGNTASLTISGLQAEDEADYYCSSYTDSSTLDVVFGGGTKVTVL

Positions count from the first letter of the chain named.

T1 sequence (P21860 20-1342): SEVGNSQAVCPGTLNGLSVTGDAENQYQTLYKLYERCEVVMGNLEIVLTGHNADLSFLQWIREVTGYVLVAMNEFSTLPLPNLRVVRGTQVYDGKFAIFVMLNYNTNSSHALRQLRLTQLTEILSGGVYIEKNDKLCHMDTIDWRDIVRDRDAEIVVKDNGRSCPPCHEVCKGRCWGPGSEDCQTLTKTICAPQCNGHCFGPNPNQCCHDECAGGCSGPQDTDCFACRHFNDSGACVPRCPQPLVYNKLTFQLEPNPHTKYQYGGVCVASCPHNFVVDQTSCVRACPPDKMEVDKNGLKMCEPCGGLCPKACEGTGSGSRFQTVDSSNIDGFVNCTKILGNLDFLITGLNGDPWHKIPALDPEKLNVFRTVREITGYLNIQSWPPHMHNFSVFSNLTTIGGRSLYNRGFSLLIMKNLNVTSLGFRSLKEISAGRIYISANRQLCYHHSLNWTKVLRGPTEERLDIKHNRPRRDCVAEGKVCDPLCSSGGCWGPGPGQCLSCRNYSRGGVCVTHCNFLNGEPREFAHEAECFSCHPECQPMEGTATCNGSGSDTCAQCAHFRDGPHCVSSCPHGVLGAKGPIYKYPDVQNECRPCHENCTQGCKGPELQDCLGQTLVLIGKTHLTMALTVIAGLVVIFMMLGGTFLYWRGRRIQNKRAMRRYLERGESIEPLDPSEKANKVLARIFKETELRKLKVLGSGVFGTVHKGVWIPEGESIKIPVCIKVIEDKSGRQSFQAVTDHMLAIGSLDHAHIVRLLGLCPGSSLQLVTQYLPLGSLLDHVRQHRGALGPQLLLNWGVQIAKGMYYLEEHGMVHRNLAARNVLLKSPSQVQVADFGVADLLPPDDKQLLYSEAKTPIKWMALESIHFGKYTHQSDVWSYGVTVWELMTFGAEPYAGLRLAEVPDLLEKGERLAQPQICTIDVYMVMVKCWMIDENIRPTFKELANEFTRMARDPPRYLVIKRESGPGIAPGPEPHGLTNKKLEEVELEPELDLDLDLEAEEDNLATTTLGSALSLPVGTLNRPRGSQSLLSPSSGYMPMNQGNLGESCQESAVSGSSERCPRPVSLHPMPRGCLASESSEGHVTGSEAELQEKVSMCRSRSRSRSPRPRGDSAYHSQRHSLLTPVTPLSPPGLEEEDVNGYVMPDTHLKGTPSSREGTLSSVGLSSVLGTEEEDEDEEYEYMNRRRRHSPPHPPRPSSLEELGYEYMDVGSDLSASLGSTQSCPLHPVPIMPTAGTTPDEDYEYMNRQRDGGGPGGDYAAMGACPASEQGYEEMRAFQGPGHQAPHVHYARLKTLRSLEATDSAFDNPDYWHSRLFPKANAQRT

One assay addresses T1, endogenous human ErbB3 expressed on human cancer cells (MCF7; A431NS) (human, UniProt P21860 20-1342). Put plainly: cell-based or functional assay.
As to B1, the “IC50, inhibition of ERK1/2 phosphorylation induced by NRG1 beta-1 (phospho-p44/42 MAPK ELISA, MCF7)” value was found to be 0.13 nM and the “IC50, inhibition of ErbB3 phosphorylation induced by Heregulin (phospho-HER3 ELISA, MCF7)” value (“IC50, inhibition … (phospho-HER3 ELISA, MCF7)” for short) came to 0.13 nM.

As for B2, the “IC50, inhibition of ERK1/2 phosphorylation induced by NRG1 beta-1 (phospho-p44/42 MAPK ELISA, MCF7)” value was 0.12 nM; the “IC50, inhibition … (phospho-HER3 ELISA, MCF7)” value was determined as 0.12 nM; the “IC50, inhibition of NRG1-beta 1 induced MCF7 proliferation (MTT)” value (from here on “IC50, inhibition … (MTT)”) was 2.8 nM.

For B3, the “IC50, inhibition … (MTT)” value was 12.8 nM.

Regarding B4, the “IC50, inhibition of ERK1/2 phosphorylation induced by NRG1 beta-1 (phospho-p44/42 MAPK ELISA, MCF7)” value was 0.46 nM; the “IC50, inhibition … (phospho-HER3 ELISA, MCF7)” value came out at 0.46 nM; the “IC50, inhibition … (MTT)” value was determined as 10.6 nM.

In a further assay the target is T1, endogenous human ErbB3 expressed on …. Description: flow cytometry on MCF7 cells. As for the experimental part: This example illustrates the binding of anti-ErbB3 antibodies to endogenous human ErbB3 expressed on human cancer cells, as assayed by flow cytometry. EC₅₀ values for antibodies were determined as follows.
Her3 expressing MCF7 cells were harvested with enzyme-free Cell Dissociation Buffer (GIBCO) and transferred to V-Bottom 96 well-plates (50,000 cells/well). Cells were incubated on ice for 30 min with serial dilutions of anti-ErbB3 antibodies in FACS buffer (PBS+2% FBS)+NaN₃. After 2 washes in FACS buffer, a 1:1000 dilution of Phycoerythrin conjugated anti-Human IgG (γ-chain specific) was added and incubated for 30 min. Following a final wash, fluorescence intensity was measured on an Intellicyt High Throughput Flow Cytometer (HTFC). Data were analyzed using Graphpad Prism software using non-linear regression fit. Data points are shown as the median fluorescence intensity (MFI) of positively labeled cells +/− Standard Error. EC₅₀ values are reported as the concentration of antibody to achieve 50% of maximal ErbB3 antibodies binding to ErbB3 expressing cells.
For orientation: In flow cytometry, cells or beads pass a laser one at a time.
The molecule B5 showed an EC50 of 0.219 nM.

Consider B6, for which a half-maximal effect (EC50) was put at 0.049 nM.

Molecule B7 gave an EC50 of 2.01 nM.

Molecule B8 registered an EC50 of 2.65 nM.

B9 displayed an EC50 of 0.0242 nM.

As for B10, the EC50 was 1.93 nM.

For B1, a half-maximal effect (EC50) was put at 0.163 nM.

B11 registered an EC50 of 5.97 nM.

For B12, a half-maximal response (EC50) required 0.427 nM.

Turning to B13, the EC50 stood at 0.0921 nM.

On to B2, for which a half-maximal effect (EC50) was put at 1.22 nM.

Turning to B14, the EC50 worked out at 4.03 nM. Compared with the last molecule, the EC50 is about 3.3-fold higher.

B15 displayed an EC50 of 0.933 nM. Compared with the last molecule, the EC50 is about 4.3-fold lower.

Molecule B3 yielded an EC50 of 0.747 nM.

B16 registered an EC50 of 3.07 nM. Against the preceding molecule, the EC50 is about 4.1-fold higher.

On to B4, for which a half-maximal response (EC50) required 5.71 nM.

As a reminder, the EC50 is the concentration giving half of the maximal effect.
